The results in this text go back to patent publication US20200279616A1.

Experiment [1] has as its target HLA monomer of the STII-TR-FRET peptide exchange assay (secreted HLA class II alpha/beta heterodimer; allele not stated). Description: TR-FRET peptide exchange titration on 20nM DRB1*01:01 (STII-CLIP), 37C; displaced: m2. On the technique in general: In TR-FRET formats the signal depends on donor and acceptor labels being close together.
In experiment [2] the target is T1, HLA-DRB1*01:01 (biochemical MHC-peptide affinity assay) (human).
T1 chain 1: not shown
T1 chain 2: not shown
Kind of experiment: biochemical MHC-peptide affinity assay.

The target in experiment [3] is T2, HLA-DRB1*11:01 (biochemical MHC-peptide affinity assay) (human).
T2 chain 1: not shown
T2 chain 2: not shown
Kind of experiment: biochemical MHC-peptide affinity assay.

The target of experiment [4] is T3, Thrombin digested soluble HLA-DRB1*15:01 (CLIP0 placeholder construct) (human). Description: differential scanning fluorometry after peptide exchange (Sypro orange). On the technique in general: Differential scanning fluorimetry follows unfolding on heating by fluorescence.
The target of experiment [5] is T3, Thrombin digested soluble …. Kind of experiment: FP probe displacement; probe m27.

In experiment [1], CLIP (peptide) had an IC50 (read off the curve) of 70 nM.

Consider TWFNQPARKIR (modifications not checked), for which the Measured affinity in experiment [2] was found to be 8 nM.

Turning to DVNEYAPVFKEKSYK (modifications not checked), the Measured affinity in experiment [3] was 223 nM.

In experiment [2], MPSFVPSDGRQAAD (modifications not checked) yielded a Measured affinity of 3 nM.

In experiment [3], IAGEWQVLHREGAIT (modifications not checked) returned a Measured affinity of 35 nM.

In experiment [4], PPIDGYPNHPCFEPE (modifications not checked) [M230] displayed a DTm (sample Tm - control Tm) of 21.4. Also, in experiment [5], the % inhibition of probe binding at 0.1uM worked out at 49%, the % inhibition of probe binding at 1uM is 79% and the % inhibition of probe binding at 10uM is 82%.

For the molecule EGEYQGIPRAESGG (modifications not checked), in experiment [3], the Measured affinity came out at 159 nM.

On to SPHAFKTESGEETDL (modifications not checked), for which, in experiment [2], the Measured affinity stood at 333 nM.

For the molecule PQLRQWWAQGADPLA (modifications not checked) [M247], in experiment [4], the DTm (sample Tm - control Tm) is 20.1. Moreover, in experiment [5], the % inhibition of probe binding at 0.1uM was 42%, the % inhibition of probe binding at 1uM was 50% and the % inhibition of probe binding at 10uM was 58%.

The molecule GPFSFSVIDKPPG (modifications not checked) registered a Measured affinity in experiment [3] of 209 nM.

In the case of GVQRGLVGEIIKR (modifications not checked), the Measured affinity in experiment [2] was 8 nM.

In turn, GLRYKKLHDPKGWIT (modifications not checked) showed a Measured affinity in experiment [2] of 30 nM.

Take YEDKFRNNLKGKRLD (modifications not checked): the Measured affinity in experiment [3] stood at 254 nM.

In turn, LAPTWEELSKKEFPG (modifications not checked) displayed a Measured affinity in experiment [3] of 174 nM.

In turn, ENPYFAPNPKIIRQ (modifications not checked) registered a Measured affinity in experiment [3] of 128 nM.

In turn, DRYEMEDGKVIER (modifications not checked) displayed a Measured affinity in experiment [2] of 54 nM.

ASLRSWPSTWAPWAS (modifications not checked) [M371]: the DTm (sample Tm - control Tm) in experiment [4] was determined as 19.9. In experiment [5], this molecule registered a % inhibition of probe binding at 0.1uM of 46%, a % inhibition of probe binding at 1uM of 58% and a % inhibition of probe binding at 10uM of 74%.

TRNEVIPMSHPGAVD (modifications not checked) returned a Measured affinity in experiment [3] of 36 nM.

The molecule EPAEFIIDTRDAGYG (modifications not checked) gave a Measured affinity in experiment [3] of 195 nM.

In experiment [3], DLEELEVLERKPAAG (modifications not checked) returned a Measured affinity of 63 nM.

Turning to DKKNIILEEGKEILVG (modifications not checked), the Measured affinity in experiment [2] was determined as 27 nM.

Take GQQWTYEQRKIVE (modifications not checked): the Measured affinity in experiment [3] was 145 nM.

For the molecule LNELKPISKGGHSS (modifications not checked), the Measured affinity in experiment [3] is 67 nM.

GMNIVEAMERFGSRNG (modifications not checked): the Measured affinity in experiment [3] came out at 79 nM.

In the case of GHPDLQGQPAEEIFES (modifications not checked), in experiment [2], the Measured affinity stood at 189 nM.

Molecule LLRPGQIVAFDSTAQ (modifications not checked) [M248] yielded a DTm (sample Tm - control Tm) in experiment [4] of 5.6. In experiment [5], the % inhibition of probe binding at 0.1uM amounted to 1%, the % inhibition of probe binding at 1uM amounted to 6% and the % inhibition of probe binding at 10uM amounted to 61%.

For PQILPYPAPEEAQEN (modifications not checked) [M231], in experiment [4], the Average Tm stood at 73.9 and the DTm (sample Tm - control Tm) was determined as 15.6. In experiment [5], this molecule registered a % inhibition of probe binding at 0.1uM of 21%, a % inhibition of probe binding at 1uM of 50% and a % inhibition of probe binding at 10uM of 66%.
